According to US20050031631A1:
Changes are numbered by the printed parent chain.

B1: PjB mutant of Par j 1.0102 (Cys50->Ser and Cys52->Ser) (protein, not shown: small tags and cut ends)
chain: QETCGTMVRALMPCLPFVQGKEKEPSKGCCSGAKRLDGETKTGPQRVHASESIQTAMKTYSDIDGKLVSEVPKHCGIVDSKLPPIDVNMDCKTVGVVPRQPQLPVSLRHGPVTGPSDPAHKARLERPQIRVPPPAPEKA
B2: PjA mutant of Par j 1.0102 (Cys29->Ser and Cys30->Ser) (protein, not shown: small tags and cut ends)
chain: B1 chain with C29S, C30S, S50C, S52C
B3: PjC mutant of Par j 1.0102 (Cys4->Ser, Cys29->Ser and Cys30->Ser) (protein, not shown: small tags and cut ends)
chain: B1 chain with C4S, C29S, C30S, S50C, S52C
B4: PjD mutant of Par j 1.0102 (Cys29->Ser, Cys30->Ser, Cys50->Ser and Cys52->Ser) (protein, not shown: small tags and cut ends)
chain: B1 chain with C29S, C30S
B5: recombinant Par j 1.0102, major allergen of Parietaria judaica (wild type) (protein, not shown: small tags and cut ends)
chain: B1 chain with S50C, S52C

Key:
[1] = biological target: human IgE of ten monosensitive Pj allergic patients (single sera / the patients themselves) (human); assay: cell-based or functional assay
[2] = biological target: human IgE from a pool of sera (n=10) of Pj monosensitive allergic patients (human); assay: ELISA inhibition: pool of sera (n=10, 1:5) preincubated with the protein (0.25-20 ug/ml), then on wells coated with rParj1; bound IgE detected

Binder | skin prick test, patients with Type I immediate hypersensitivity (out of 10 patients) [1] | % inhibition [2] | skin prick test, patients with a positive reaction (out of 10 patients) [1]
B1 | 9 | 85% | –
B2 | – | 16% | 3
B3 | – | 14% | –
B4 | – | 15% | –
B5 | – | 95% | –
